Laboratory results as given in IntAct's records for PubMed 25910212.

B1: Phakinin (Homo sapiens), Q13515 (parent)
chain: MSERRVVVDLPTSASSSMPLQRRRASFRGPRSSSSLESPPASRTNAMSGLVRAPGVYVGTAPSGCIGGLGARVTRRALGISSVFLQGLRSSGLATVPAPGLERDHGAVEDLGGCLVEYMAKVHALEQVSQELETQLRMHLESKATRSGNWGALRASWASSCQQVGEAVLENARLMLQTETIQAGADDFKERYENEQPFRKAAEEEINSLYKVIDEANLTKMDLESQIESLKEELGSLSRNYEEDVKLLHKQLAGCELEQMDAPIGTGLDDILETIRIQWERDVEKNRVEAGALLQAKQQAEVAHMSQTQEEKLAAALRVELHNTSCQVQSLQAETESLRALKRGLENTLHDAKHWHDMELQNLGAVVGRLEAELREIRAEAEQQQQERAHLLARKCQLQKDVASYHALLDREESG
B2: Tribbles homolog 3 (Homo sapiens), Q96RU7 (parent)
chain: MRATPLAAPAGSLSRKKRLELDDNLDTERPVQKRARSGPQPRLPPCLLPLSPPTAPDRATAVATASRLGPYVLLEPEEGGRAYQALHCPTGTEYTCKVYPVQEALAVLEPYARLPPHKHVARPTEVLAGTQLLYAFFTRTHGDMHSLVRSRHRIPEPEAAVLFRQMATALAHCHQHGLVLRDLKLCRFVFADRERKKLVLENLEDSCVLTGPDDSLWDKHACPAYVGPEILSSRASYSGKAADVWSLGVALFTMLAGHYPFQDSEPVLLFGKIRRGAYALPAGLSAPARCLVRCLLRREPAERLTATGILLHPWLRQDPMPLAPTRSHLWEAAQVVPDGLGLDEAREEEGDREVVLYG
B3: Phospholamban (Homo sapiens), P26678 (parent)
chain: MEKVQYLTRSAIRRASTIEMPQQARQKLQNLFINFCLILICLLLICIIVMLL
B4: Krev interaction trapped protein 1 (Homo sapiens), O00522 (parent)
chain: MGNPENIEDAYVAVIRPKNTASLNSREYRAKSYEILLHEVPIEGQKKKRKKVLLETKLQGNSEITQGILDYVVETTKPISPANQGIRGKRVVLMKKFPLDGEKMGREASLFIVPSVVKDNTKYTYTPGCPIFYCLQDIMRVCSESSTHFATLTARMLIALDKWLDERHAQSHFIPALFRPSPLERIKTNVINPAYATESGQTENSLHMGYSALEIKSKMLALEKADTCIYNPLFGSDLQYTNRVDKVVINPYFGLGAPDYSKIQIPKQEKWQRSMSSVTEDKERQWVDDFPLHRSACEGDSELLSRLLSERFSVNQLDSDHWAPIHYACWYGKVEATRILLEKGKCNPNLLNGQLSSPLHFAAGGGHAEIVQILLNHPETDRHITDQQGRSPLNICEENKQNNWEEAAKLLKEAINKPYEKVRIYRMDGSYRSVELKHGNNTTVQQIMEGMRLSQETQQYFTIWICSENLSLQLKPYHKPLQHVRDWPEILAELTNLDPQRETPQLFLRRDVRLPLEVEKQIEDPLAILILFDEARYNLLKGFYTAPDAKLITLASLLLQIVYGNYESKKHKQGFLNEENLKSIVPVTKLKSKAPHWTNRILHEYKNLSTSEGVSKEMHHLQRMFLQNCWEIPTYGAAFFTGQIFTKASPSNHKVIPVYVGVNIKGLHLLNMETKALLISLKYGCFMWQLGDTDTCFQIHSMENKMSFIVHTKQAGLVVKLLMKLNGQLMPTERNS
B5: Apolipoprotein D (Homo sapiens), P05090 (parent)
chain: MVMLLLLLSALAGLFGAAEGQAFHLGKCPNPPVQENFDVNKYLGRWYEIEKIPTTFENGRCIQANYSLMENGKIKVLNQELRADGTVNQIEGEATPVNLTEPAKLEVKFSWFMPSAPYWILATDYENYALVYSCTCIIQLFHVDFAWILARNPNLPPETVDSLKNILTSNNIDVKKMTVTDQVNCPKLS
partner: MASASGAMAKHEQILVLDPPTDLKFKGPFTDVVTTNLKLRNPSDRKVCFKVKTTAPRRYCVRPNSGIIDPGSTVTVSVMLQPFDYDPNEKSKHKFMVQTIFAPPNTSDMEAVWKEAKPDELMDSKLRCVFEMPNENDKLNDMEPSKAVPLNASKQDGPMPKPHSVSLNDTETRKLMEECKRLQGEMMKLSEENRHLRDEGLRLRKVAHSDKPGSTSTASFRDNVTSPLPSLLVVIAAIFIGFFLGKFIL
B6: Emerin (Homo sapiens), P50402 (parent)
chain: MDNYADLSDTELTTLLRRYNIPHGPVVGSTRRLYEKKIFEYETQRRRLSPPSSSAASSYSFSDLNSTRGDADMYDLPKKEDALLYQSKGYNDDYYEESYFTTRTYGEPESAGPSRAVRQSVTSFPDADAFHHQVHDDDLLSSSEEECKDRERPMYGRDSAYQSITHYRPVSASRSSLDLSYYPTSSSTSFMSSSSSSSSWLTRRAIRPENRAPGAGLGQDRQVPLWGQLLLFLVFVIVLFFIYHFMQAEEGNPF
B7: Estrogen receptor beta (Homo sapiens), Q92731-3 (parent)
chain: MDIKNSPSSLNSPSSYNCSQSILPLEHGSIYIPSSYVDSHHEYPAMTFYSPAVMNYSIPSNVTNLEGGPGRQTTSPNVLWPTPGHLSPLVVHRQLSHLYAEPQKSPWCEARSLEHTLPVNRETLKRKVSGNRCASPVTGPGSKRDAHFCAVCSDYASGYHYGVWSCEGCKAFFKRSIQGHNDYICPATNQCTIDKNRRKSCQACRLRKCYEVGMVKCGSRRERCGYRLVRRQRSADEQLHCAGKAKRSGGHAPRVRELLLDALSPEQLVLTLLEAEPPHVLISRPSAPFTEASMMMSLTKLADKELVHMISWAKKIPGMRGNA

Variants of: B1
Details: with atf4_human ATF4, P18848
Target sequence in this assay (P18848 whole entry): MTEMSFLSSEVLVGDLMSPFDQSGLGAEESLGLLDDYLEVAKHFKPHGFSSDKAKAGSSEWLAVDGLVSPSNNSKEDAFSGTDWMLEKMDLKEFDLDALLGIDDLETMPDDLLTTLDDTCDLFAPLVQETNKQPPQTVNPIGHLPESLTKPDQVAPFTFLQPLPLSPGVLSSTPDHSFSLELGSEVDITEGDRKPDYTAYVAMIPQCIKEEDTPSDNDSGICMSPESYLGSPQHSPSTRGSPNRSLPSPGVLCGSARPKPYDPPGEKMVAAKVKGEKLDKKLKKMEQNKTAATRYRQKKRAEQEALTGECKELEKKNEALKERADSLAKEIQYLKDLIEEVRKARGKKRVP

Variant	effect of a mutation on the interaction
A407D	with no effect
R339H	with no effect

Variants of: B1
Details: with syce1_human SYCE1, Q8N0S2
Chain of syce1_human SYCE1, Q8N0S2 (Q8N0S2 whole entry): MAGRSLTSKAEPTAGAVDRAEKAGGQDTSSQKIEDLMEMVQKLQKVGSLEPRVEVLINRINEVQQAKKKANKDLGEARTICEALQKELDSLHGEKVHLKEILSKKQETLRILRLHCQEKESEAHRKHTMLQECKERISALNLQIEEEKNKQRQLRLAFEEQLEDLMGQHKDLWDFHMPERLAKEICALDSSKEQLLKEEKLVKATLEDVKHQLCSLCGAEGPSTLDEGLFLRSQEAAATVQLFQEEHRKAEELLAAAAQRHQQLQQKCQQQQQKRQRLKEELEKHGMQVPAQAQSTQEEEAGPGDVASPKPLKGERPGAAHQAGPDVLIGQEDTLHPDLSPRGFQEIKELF

Variant	effect of a mutation on the interaction
A407D	with no effect
R339H	with no effect

Variants of: B2
Details: with atf4_human ATF4, P18848
Target sequence in this assay (P18848 whole entry): as the sequence (P18848 whole entry) above

Variant	effect of a mutation on the interaction
Q84R	with no effect

Variants of: B2
Details: with mdfi_human MDFI
Target sequence in this assay (Q99750 whole entry): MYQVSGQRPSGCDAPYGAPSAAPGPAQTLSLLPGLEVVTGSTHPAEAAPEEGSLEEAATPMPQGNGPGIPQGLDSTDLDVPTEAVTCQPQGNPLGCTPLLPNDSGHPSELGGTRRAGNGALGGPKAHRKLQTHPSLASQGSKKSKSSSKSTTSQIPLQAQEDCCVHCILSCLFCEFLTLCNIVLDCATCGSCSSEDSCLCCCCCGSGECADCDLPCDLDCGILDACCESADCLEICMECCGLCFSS

Variant	effect of a mutation on the interaction
Q84R	with no effect

Variants of: B3
Details: with BCL2L13, Q9BXK5
Chain of BCL2L13, Q9BXK5 (Q9BXK5 whole entry): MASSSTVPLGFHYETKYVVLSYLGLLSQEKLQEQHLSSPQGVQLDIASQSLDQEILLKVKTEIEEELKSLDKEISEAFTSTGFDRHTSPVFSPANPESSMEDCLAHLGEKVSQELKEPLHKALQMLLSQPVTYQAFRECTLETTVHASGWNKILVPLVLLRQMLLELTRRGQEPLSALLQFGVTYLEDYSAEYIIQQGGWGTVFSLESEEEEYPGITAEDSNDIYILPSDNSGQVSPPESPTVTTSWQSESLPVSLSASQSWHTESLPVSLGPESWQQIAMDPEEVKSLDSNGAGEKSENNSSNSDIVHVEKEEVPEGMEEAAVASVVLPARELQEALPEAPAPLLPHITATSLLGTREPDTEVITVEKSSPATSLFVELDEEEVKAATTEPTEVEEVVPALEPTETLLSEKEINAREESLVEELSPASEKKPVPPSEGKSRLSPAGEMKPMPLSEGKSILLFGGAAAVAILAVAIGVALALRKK

Variant	effect of a mutation on the interaction
R9C	with no effect

Variants of: B3
Details: with eda_human EDA

Variant	effect of a mutation on the interaction
R9C	with no effect

Variants of: B4
Details: with ccm2_human CCM2, Q9BSQ5
Chain of ccm2_human CCM2, Q9BSQ5 (Q9BSQ5 whole entry): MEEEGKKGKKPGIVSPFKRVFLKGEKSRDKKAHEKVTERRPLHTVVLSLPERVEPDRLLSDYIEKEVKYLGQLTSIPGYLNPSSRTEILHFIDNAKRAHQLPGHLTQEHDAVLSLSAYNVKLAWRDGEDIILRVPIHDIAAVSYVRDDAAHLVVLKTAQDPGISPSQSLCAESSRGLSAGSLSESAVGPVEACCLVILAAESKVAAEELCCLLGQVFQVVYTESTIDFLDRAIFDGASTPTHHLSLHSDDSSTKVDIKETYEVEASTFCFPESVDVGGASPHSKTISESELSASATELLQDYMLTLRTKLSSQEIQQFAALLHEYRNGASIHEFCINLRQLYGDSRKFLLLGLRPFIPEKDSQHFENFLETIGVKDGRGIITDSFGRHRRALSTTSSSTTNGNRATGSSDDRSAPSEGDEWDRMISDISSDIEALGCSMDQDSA

Variant	effect of a mutation on the interaction
D137G	with no effect

Variants of: B5
Details: with vapa_human VAPA

Variant	effect of a mutation on the interaction
F56V	with no effect

Variants of: B6
Details: with vapb_human VAPB

Variant	effect of a mutation on the interaction
P183H	with no effect
P183T	with no effect

Variants of: B6
Details: with tri42_human TRIM42, Q8IWZ5
Chain of tri42_human TRIM42, Q8IWZ5 (Q8IWZ5 whole entry): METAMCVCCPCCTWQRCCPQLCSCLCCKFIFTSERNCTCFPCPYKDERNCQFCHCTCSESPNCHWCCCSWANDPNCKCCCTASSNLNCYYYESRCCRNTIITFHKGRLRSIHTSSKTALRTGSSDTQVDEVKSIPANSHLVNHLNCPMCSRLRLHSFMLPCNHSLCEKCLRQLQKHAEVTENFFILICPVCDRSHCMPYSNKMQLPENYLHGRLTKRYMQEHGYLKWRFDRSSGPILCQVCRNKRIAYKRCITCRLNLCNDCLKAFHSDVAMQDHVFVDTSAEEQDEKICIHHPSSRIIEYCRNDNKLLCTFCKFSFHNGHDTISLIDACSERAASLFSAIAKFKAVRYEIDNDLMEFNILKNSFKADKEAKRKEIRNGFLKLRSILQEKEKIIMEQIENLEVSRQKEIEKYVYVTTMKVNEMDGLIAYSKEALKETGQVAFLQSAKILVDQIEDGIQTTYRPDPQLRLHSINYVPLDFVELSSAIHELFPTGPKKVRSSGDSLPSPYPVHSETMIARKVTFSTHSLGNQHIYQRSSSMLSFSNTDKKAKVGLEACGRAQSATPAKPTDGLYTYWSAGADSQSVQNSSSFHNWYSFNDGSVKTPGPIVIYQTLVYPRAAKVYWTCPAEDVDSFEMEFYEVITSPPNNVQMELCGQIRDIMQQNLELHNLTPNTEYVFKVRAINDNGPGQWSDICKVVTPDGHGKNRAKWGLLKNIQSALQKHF

Variant	effect of a mutation on the interaction
P183H	with no effect
P183T	with no effect

Variants of: B6
Details: with stx4_human STX4, Q12846
Chain of stx4_human STX4, Q12846 (Q12846 whole entry): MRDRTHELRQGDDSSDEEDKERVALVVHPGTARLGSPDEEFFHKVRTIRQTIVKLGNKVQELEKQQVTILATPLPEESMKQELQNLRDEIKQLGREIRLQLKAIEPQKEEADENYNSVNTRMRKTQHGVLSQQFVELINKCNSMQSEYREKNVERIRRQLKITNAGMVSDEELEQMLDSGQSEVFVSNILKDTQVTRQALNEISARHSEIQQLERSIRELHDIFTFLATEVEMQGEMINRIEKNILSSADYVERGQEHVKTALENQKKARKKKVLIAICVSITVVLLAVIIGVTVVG

Variant	effect of a mutation on the interaction
P183H	with no effect
P183T	with no effect

Variants of: B6
Details: with meox2_human MEOX2, P50222
Chain of meox2_human MEOX2, P50222 (P50222 whole entry): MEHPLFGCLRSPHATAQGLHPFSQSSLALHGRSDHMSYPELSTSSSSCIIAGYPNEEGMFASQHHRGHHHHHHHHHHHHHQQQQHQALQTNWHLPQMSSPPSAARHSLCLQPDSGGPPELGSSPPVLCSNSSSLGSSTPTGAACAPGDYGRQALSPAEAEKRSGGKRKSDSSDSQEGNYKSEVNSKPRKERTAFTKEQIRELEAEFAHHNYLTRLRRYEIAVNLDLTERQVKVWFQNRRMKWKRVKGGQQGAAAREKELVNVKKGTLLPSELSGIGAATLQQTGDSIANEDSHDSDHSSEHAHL

Variant	effect of a mutation on the interaction
P183H	with no effect
P183T	with no effect

Variants of: B6
Details: with ccd33_human CCDC33, Q8N5R6
Chain of ccd33_human CCDC33, Q8N5R6 (Q8N5R6 whole entry): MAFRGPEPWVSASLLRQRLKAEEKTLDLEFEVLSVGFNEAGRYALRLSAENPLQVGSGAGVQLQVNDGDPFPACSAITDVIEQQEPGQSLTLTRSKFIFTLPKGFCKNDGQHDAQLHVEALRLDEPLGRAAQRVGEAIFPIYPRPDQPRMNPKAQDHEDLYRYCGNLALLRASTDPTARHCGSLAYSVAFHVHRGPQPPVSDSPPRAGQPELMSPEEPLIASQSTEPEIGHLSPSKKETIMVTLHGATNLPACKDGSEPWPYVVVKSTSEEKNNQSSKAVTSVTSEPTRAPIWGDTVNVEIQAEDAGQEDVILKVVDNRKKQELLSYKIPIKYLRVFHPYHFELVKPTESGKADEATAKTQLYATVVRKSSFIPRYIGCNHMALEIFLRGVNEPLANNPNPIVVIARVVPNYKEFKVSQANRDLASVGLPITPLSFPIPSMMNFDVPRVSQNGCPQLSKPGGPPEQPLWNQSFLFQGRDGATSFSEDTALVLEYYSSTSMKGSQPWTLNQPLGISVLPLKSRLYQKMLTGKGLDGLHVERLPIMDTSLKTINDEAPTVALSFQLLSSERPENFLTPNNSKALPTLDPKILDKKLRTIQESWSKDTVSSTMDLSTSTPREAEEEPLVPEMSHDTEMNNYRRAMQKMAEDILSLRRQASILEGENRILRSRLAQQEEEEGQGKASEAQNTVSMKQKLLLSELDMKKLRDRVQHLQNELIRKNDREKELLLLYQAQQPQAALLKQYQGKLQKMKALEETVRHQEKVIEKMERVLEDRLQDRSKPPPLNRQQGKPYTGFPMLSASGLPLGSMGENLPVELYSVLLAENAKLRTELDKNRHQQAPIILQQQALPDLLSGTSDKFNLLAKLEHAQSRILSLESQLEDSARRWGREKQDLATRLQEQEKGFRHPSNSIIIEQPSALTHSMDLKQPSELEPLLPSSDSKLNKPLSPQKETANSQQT

Variant	effect of a mutation on the interaction
P183H	with no effect
P183T	with no effect

Variants of: B7
Details: with tfcp2_human TFCP2, Q12800
Chain of tfcp2_human TFCP2, Q12800 (Q12800 whole entry): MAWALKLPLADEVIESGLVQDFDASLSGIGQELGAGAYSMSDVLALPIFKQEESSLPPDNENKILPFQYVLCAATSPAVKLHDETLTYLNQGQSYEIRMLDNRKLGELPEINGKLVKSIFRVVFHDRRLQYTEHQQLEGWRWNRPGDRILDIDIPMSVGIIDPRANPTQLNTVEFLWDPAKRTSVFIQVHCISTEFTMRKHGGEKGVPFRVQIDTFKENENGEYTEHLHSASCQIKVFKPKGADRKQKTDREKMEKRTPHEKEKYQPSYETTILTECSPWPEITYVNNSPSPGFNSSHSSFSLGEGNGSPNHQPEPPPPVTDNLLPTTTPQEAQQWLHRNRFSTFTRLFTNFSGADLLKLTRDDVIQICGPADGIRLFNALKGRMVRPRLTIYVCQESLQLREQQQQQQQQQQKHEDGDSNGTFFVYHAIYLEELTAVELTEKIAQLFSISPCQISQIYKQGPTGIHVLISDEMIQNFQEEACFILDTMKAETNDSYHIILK

Variant	effect of a mutation on the interaction
F289L	causing an interaction

Variants of: B7
Details: with mdfi_human MDFI
Target sequence in this assay (Q99750 whole entry): as the sequence (Q99750 whole entry) above

Variant	effect of a mutation on the interaction
F289L	causing an interaction
